# Data from PMC9352680, “A comprehensive thermodynamic model for RNA binding by the Saccharomyces cerevisiae Pumilio protein PUF4”.
# T1: PUF4 RNA-binding domain (Saccharomyces cerevisiae, UniProt P25339 537-888)
# T1 sequence: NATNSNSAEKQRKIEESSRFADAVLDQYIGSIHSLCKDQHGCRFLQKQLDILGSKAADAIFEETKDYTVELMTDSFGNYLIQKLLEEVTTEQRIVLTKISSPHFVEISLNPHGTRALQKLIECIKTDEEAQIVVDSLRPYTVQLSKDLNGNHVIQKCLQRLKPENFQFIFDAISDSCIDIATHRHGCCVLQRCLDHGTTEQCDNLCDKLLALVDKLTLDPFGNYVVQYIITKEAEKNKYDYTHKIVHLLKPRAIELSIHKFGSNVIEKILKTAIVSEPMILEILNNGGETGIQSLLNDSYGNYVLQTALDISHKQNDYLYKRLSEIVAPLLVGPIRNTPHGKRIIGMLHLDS
# Molecular target: T1, PUF4 RNA-binding domain
# Assay: Mg; RNA-MaP; 20 mM Na-HEPES pH 7.4, 30 mM KOAc, 0.75 mM MgCl2, 0.1% Tween-20, 5% glycerol, 0.1 mg/mL BSA, 2 mM DTT; 25 C; 0.0125-409.6 nM protein
# Settings: tags: N-His6-TEV cleaved; C-SNAP kept, Cy3B-labelled; label: tethered on chip by stalled RNA polymerase
row,Binder,Kd [nM]
1,Ie_S4_P5E.1_K5.1_C5.1_H5.1_[+3CCCTT]_A5.1_F5.1_T5.1 (ssRNA) RNA: UUUGACAACUGAUCGUUCUUUCUUGUCCCUUAUUAUUAUUCUUUCUCGAUCAGUUGUCUUU,54.8
2,Ie_S4_P4E.1_K4.1_C4.1_H4.1_A4.1_F4.1_[+8C]_T4.1 (ssRNA) RNA: UUUGACAACUGAUCGUUCUUUCUUGUAUAUUCAUUCUUUCUCGAUCAGUUGUCUUU,13.1
3,Ie_S4_P4E.1_K4.1_C4.1_H4.1_A4.1_F4.1_[+9C]_T4.1 (ssRNA) RNA: UUUGACAACUGAUCGUUCUUUCUUGUAUAUUACUUCUUUCUCGAUCAGUUGUCUUU,1.51
4,Ie_S4_P4E.1_K4.1_C4.1_H4.1_A4.1_[+7TTC]_F4.1_T4.1 (ssRNA) RNA: UUUGACAACUGAUCGUUCUUUCUUGUAUAUUUCUAUUCUUUCUCGAUCAGUUGUCUUU,4.42
5,Ie_S4_P5E.1_K5.1_C5.1_H5.1_[+1TC]_A5.1_F5.1_T5.1 (ssRNA) RNA: UUUGACAACUGAUCGUUCUUUCUUUCGUAUUAUUAUUCUUUCUCGAUCAGUUGUCUUU,288
6,Ie_S4_P4E.1_K4.1_C4.1_H4.1_A4.1_F4.1_[+9CTC]_T4.1 (ssRNA) RNA: UUUGACAACUGAUCGUUCUUUCUUGUAUAUUACUCUUCUUUCUCGAUCAGUUGUCUUU,1.39
7,Ie_S4_P5E.1_K5.1_C5.1_H5.1_[+1TT]_A5.1_F5.1_T5.1 (ssRNA) RNA: UUUGACAACUGAUCGUUCUUUCUUUUGUAUUAUUAUUCUUUCUCGAUCAGUUGUCUUU,1.52
8,Ie_S4_P5E.1_K5.1_C5.1_H5.1_[+3TT]_A5.1_F5.1_T5.1 (ssRNA) RNA: UUUGACAACUGAUCGUUCUUUCUUGUUUAUUAUUAUUCUUUCUCGAUCAGUUGUCUUU,8.89
9,Ie_S4_P5E.1_K5.1_C5.1_H5.1_[+3TC]_A5.1_F5.1_T5.1 (ssRNA) RNA: UUUGACAACUGAUCGUUCUUUCUUGUUCAUUAUUAUUCUUUCUCGAUCAGUUGUCUUU,2.68
10,Ie_S4_P4E.1_K4.1_C4.1_H4.1_A4.1_F4.1_[+8TCC]_T4.1 (ssRNA) RNA: UUUGACAACUGAUCGUUCUUUCUUGUAUAUUUCCAUUCUUUCUCGAUCAGUUGUCUUU,4.35
11,Ie_S4_P5E.1_K5.1_C5.1_H5.1_[+4CC]_A5.1_F5.1_T5.1 (ssRNA) RNA: UUUGACAACUGAUCGUUCUUUCUUGUACCUUAUUAUUCUUUCUCGAUCAGUUGUCUUU,1.43
12,Ie_S4_P4E.1_K4.1_C4.1_H4.1_A4.1_F4.1_[+9CTT]_T4.1 (ssRNA) RNA: UUUGACAACUGAUCGUUCUUUCUUGUAUAUUACUUUUCUUUCUCGAUCAGUUGUCUUU,1.08
13,Ie_S4_P4E.1_K4.1_C4.1_H4.1_A4.1_F4.1_[+9TTC]_T4.1 (ssRNA) RNA: UUUGACAACUGAUCGUUCUUUCUUGUAUAUUAUUCUUCUUUCUCGAUCAGUUGUCUUU,0.42
14,Ie_S4_P5E.1_K5.1_C5.1_H5.1_[+3CT]_A5.1_F5.1_T5.1 (ssRNA) RNA: UUUGACAACUGAUCGUUCUUUCUUGUCUAUUAUUAUUCUUUCUCGAUCAGUUGUCUUU,10.9
15,Ie_S4_P4E.1_K4.1_C4.1_H4.1_A4.1_F4.1_[+8CCTCT]_T4.1 (ssRNA) RNA: UUUGACAACUGAUCGUUCUUUCUUGUAUAUUCCUCUAUUCUUUCUCGAUCAGUUGUCUUU,6.66
16,Ie_S4_P5E.1_K5.1_C5.1_H5.1_[+3CTCT]_A5.1_F5.1_T5.1 (ssRNA) RNA: UUUGACAACUGAUCGUUCUUUCUUGUCUCUAUUAUUAUUCUUUCUCGAUCAGUUGUCUUU,56.3
17,Ie_S4_P4E.1_K4.1_C4.1_H4.1_A4.1_F4.1_[+9CCCTT]_T4.1 (ssRNA) RNA: UUUGACAACUGAUCGUUCUUUCUUGUAUAUUACCCUUUUCUUUCUCGAUCAGUUGUCUUU,0.565
18,Ie_S4_P4E.1_K4.1_C4.1_H4.1_A4.1_F4.1_[+9TCTCT]_T4.1 (ssRNA) RNA: UUUGACAACUGAUCGUUCUUUCUUGUAUAUUAUCUCUUUCUUUCUCGAUCAGUUGUCUUU,0.343
19,Ib_S2_P3E.1_K3.1_C3.1_H3.1_[A4C]_A3.1_[T5C]_F3.1_T3.1 (ssRNA) RNA: UUUGAUUAAUAUGAUAUCGUUCUUUCUUGUCCAUAUUCUUUCUCGAUAUCAUAUUAAUCUUU,581
20,Ib_S2_P3E.1_K3.1_C3.1_H3.1_[A4G]_A3.1_[A6C]_F3.1_T3.1 (ssRNA) RNA: UUUGAUUAAUAUGAUAUCGUUCUUUCUUGUGUCUAUUCUUUCUCGAUAUCAUAUUAAUCUUU,107
21,Ic_S2_P3E.1_K3.1_C3.1_H3.1_A3.1_[A6G]_F3.1_T3.1 (ssRNA) RNA: UUUGAUUAAUAUGAUAUCGUUCUUUCUUGUAUGUAUUCUUUCUCGAUAUCAUAUUAAUCUUU,26.3
22,Ib_S2_P3E.1_K3.1_C3.1_H3.1_[A4C]_A3.1_[T5A]_F3.1_T3.1 (ssRNA) RNA: UUUGAUUAAUAUGAUAUCGUUCUUUCUUGUCAAUAUUCUUUCUCGAUAUCAUAUUAAUCUUU,1360
23,Ib_S2_P3E.1_K3.1_C3.1_H3.1_[A4T]_A3.1_[T5A]_F3.1_T3.1 (ssRNA) RNA: UUUGAUUAAUAUGAUAUCGUUCUUUCUUGUUAAUAUUCUUUCUCGAUAUCAUAUUAAUCUUU,670

row,Binder,Kd [nM]
1,Ie_S4_P5E.1_K5.1_C5.1_H5.1_[+1CCT]_A5.1_F5.1_T5.1 (ssRNA) RNA: UUUGACAACUGAUCGUUCUUUCUUCCUGUAUUAUUAUUCUUUCUCGAUCAGUUGUCUUU,1.07
2,Ie_S4_P5E.1_K5.1_C5.1_H5.1_[+1CTC]_A5.1_F5.1_T5.1 (ssRNA) RNA: UUUGACAACUGAUCGUUCUUUCUUCUCGUAUUAUUAUUCUUUCUCGAUCAGUUGUCUUU,216
3,Ie_S4_P5E.1_K5.1_C5.1_H5.1_[+1CTT]_A5.1_F5.1_T5.1 (ssRNA) RNA: UUUGACAACUGAUCGUUCUUUCUUCUUGUAUUAUUAUUCUUUCUCGAUCAGUUGUCUUU,1.38
4,Ie_S4_P4E.1_K4.1_C4.1_H4.1_A4.1_[+7TCTC]_F4.1_T4.1 (ssRNA) RNA: UUUGACAACUGAUCGUUCUUUCUUGUAUAUUCUCUAUUCUUUCUCGAUCAGUUGUCUUU,6.61
5,Ie_S4_P5E.1_K5.1_C5.1_H5.1_[+3TTT]_A5.1_F5.1_T5.1 (ssRNA) RNA: UUUGACAACUGAUCGUUCUUUCUUGUUUUAUUAUUAUUCUUUCUCGAUCAGUUGUCUUU,15.6
6,Ie_S4_P4E.1_K4.1_C4.1_H4.1_A4.1_F4.1_[+8TCTC]_T4.1 (ssRNA) RNA: UUUGACAACUGAUCGUUCUUUCUUGUAUAUUUCUCAUUCUUUCUCGAUCAGUUGUCUUU,5.61
7,Ie_S4_P4E.1_K4.1_C4.1_H4.1_A4.1_F4.1_[+9CTCT]_T4.1 (ssRNA) RNA: UUUGACAACUGAUCGUUCUUUCUUGUAUAUUACUCUUUCUUUCUCGAUCAGUUGUCUUU,0.777
8,Ie_S4_P5E.1_K5.1_C5.1_H5.1_[+2TCC]_A5.1_F5.1_T5.1 (ssRNA) RNA: UUUGACAACUGAUCGUUCUUUCUUGUCCUAUUAUUAUUCUUUCUCGAUCAGUUGUCUUU,18.4
9,Ie_S4_P5E.1_K5.1_C5.1_H5.1_[+3TCT]_A5.1_F5.1_T5.1 (ssRNA) RNA: UUUGACAACUGAUCGUUCUUUCUUGUUCUAUUAUUAUUCUUUCUCGAUCAGUUGUCUUU,8.87
10,Ie_S4_P4E.1_K4.1_C4.1_H4.1_A4.1_F4.1_[+9TCTC]_T4.1 (ssRNA) RNA: UUUGACAACUGAUCGUUCUUUCUUGUAUAUUAUCUCUUCUUUCUCGAUCAGUUGUCUUU,0.36
11,Ie_S4_P5E.1_K5.1_C5.1_H5.1_[+3TCC]_A5.1_F5.1_T5.1 (ssRNA) RNA: UUUGACAACUGAUCGUUCUUUCUUGUUCCAUUAUUAUUCUUUCUCGAUCAGUUGUCUUU,9.83
12,Ie_S4_P5E.1_K5.1_C5.1_H5.1_[+3CCC]_A5.1_F5.1_T5.1 (ssRNA) RNA: UUUGACAACUGAUCGUUCUUUCUUGUCCCAUUAUUAUUCUUUCUCGAUCAGUUGUCUUU,27.8
13,Ie_S4_P5E.1_K5.1_C5.1_H5.1_[+2TCT]_A5.1_F5.1_T5.1 (ssRNA) RNA: UUUGACAACUGAUCGUUCUUUCUUGUCUUAUUAUUAUUCUUUCUCGAUCAGUUGUCUUU,15.3
14,Ie_S4_P5E.1_K5.1_C5.1_H5.1_[+1CCCT]_A5.1_F5.1_T5.1 (ssRNA) RNA: UUUGACAACUGAUCGUUCUUUCUUCCCUGUAUUAUUAUUCUUUCUCGAUCAGUUGUCUUU,1.21
15,Ie_S4_P5E.1_K5.1_C5.1_H5.1_[+3TCTC]_A5.1_F5.1_T5.1 (ssRNA) RNA: UUUGACAACUGAUCGUUCUUUCUUGUUCUCAUUAUUAUUCUUUCUCGAUCAGUUGUCUUU,40.3
16,Ie_S4_P5E.1_K5.1_C5.1_H5.1_[+3TTCC]_A5.1_F5.1_T5.1 (ssRNA) RNA: UUUGACAACUGAUCGUUCUUUCUUGUUUCCAUUAUUAUUCUUUCUCGAUCAGUUGUCUUU,44.8
17,Ie_S4_P5E.1_K5.1_C5.1_H5.1_[+2TTCC]_A5.1_F5.1_T5.1 (ssRNA) RNA: UUUGACAACUGAUCGUUCUUUCUUGUUCCUAUUAUUAUUCUUUCUCGAUCAGUUGUCUUU,26.4
18,Ie_S4_P5E.1_K5.1_C5.1_H5.1_[+2CCTC]_A5.1_F5.1_T5.1 (ssRNA) RNA: UUUGACAACUGAUCGUUCUUUCUUGCCUCUAUUAUUAUUCUUUCUCGAUCAGUUGUCUUU,863
19,Ie_S4_P4E.1_K4.1_C4.1_H4.1_A4.1_F4.1_[+8CT]_T4.1 (ssRNA) RNA: UUUGACAACUGAUCGUUCUUUCUUGUAUAUUCUAUUCUUUCUCGAUCAGUUGUCUUU,3.92
20,Ie_S4_P5E.1_K5.1_C5.1_H5.1_[+3C]_A5.1_F5.1_T5.1 (ssRNA) RNA: UUUGACAACUGAUCGUUCUUUCUUGUCAUUAUUAUUCUUUCUCGAUCAGUUGUCUUU,34.1
21,Ie_S4_P4E.1_K4.1_C4.1_H4.1_A4.1_F4.1_[+9CC]_T4.1 (ssRNA) RNA: UUUGACAACUGAUCGUUCUUUCUUGUAUAUUACCUUCUUUCUCGAUCAGUUGUCUUU,0.607
22,Ie_S4_P4E.1_K4.1_C4.1_H4.1_A4.1_F4.1_[+9TC]_T4.1 (ssRNA) RNA: UUUGACAACUGAUCGUUCUUUCUUGUAUAUUAUCUUCUUUCUCGAUCAGUUGUCUUU,0.647
23,Ie_S4_P5E.1_K5.1_C5.1_H5.1_[+3T]_A5.1_F5.1_T5.1 (ssRNA) RNA: UUUGACAACUGAUCGUUCUUUCUUGUUAUUAUUAUUCUUUCUCGAUCAGUUGUCUUU,41.6
